These results are taken from patent publication US20190062705A1 (WAYNE STATE UNIVERSITY, published 2019).

In assay [1] the target is T1, Bcl10, endogenous in the human Ramos B cell line (human, UniProt O95999 1-233).
T1 sequence (looked up): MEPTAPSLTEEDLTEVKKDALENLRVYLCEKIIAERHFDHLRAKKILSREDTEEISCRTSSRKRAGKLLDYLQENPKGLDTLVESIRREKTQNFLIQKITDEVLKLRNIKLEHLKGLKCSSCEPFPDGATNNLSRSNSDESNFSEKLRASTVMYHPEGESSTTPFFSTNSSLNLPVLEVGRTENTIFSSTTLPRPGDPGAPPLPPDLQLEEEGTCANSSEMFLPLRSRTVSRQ
The assay is described as follows: co-IP in Ramos B cells unstimulated or stimulated with TNF for 24 h.

Assay [2] addresses T2, autoimmune regulator (AIRE), mouse, endogenous in B cells (mouse, UniProt Q9Z0E3 1-552, limits assumed).
T2 construct: Endogenous protein in mouse splenic B cells and CH12 cells
T2 sequence: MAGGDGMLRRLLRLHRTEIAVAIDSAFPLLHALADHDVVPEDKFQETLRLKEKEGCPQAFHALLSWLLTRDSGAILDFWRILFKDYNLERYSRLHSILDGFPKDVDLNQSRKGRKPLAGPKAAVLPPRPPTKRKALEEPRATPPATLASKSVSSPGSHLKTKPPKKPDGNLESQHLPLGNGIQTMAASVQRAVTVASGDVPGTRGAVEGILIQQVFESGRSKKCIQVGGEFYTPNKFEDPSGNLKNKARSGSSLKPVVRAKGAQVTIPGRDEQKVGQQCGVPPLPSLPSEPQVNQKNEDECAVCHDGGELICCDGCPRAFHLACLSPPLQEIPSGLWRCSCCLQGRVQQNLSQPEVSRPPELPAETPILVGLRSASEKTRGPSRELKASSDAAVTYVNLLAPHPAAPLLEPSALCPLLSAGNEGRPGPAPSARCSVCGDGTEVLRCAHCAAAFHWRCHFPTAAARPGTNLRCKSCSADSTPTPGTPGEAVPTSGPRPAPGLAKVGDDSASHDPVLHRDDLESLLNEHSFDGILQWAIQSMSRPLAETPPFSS
The assay is described as follows: co-IP, mouse splenic B cell lysates.

B1: activation-induced cytidine deaminase (AID), human, endogenous in B cells (enzyme)
chain: MDSLLMNRRKFLYQFKNVRWAKGRRETYLCYVVKRRDSATSFSLDFGYLRNKNGCHVELLFLRYISDWDLDPGRCYRVTWFTSWSPCYDCARHVADFLRGNPNLSLRIFTARLYFCEDRKAEPEGLRRLHRAGVQIAIMTFKDYFYCWNTFVENHERTFKAWEGLHENSVRLPRQLRRILLPLYEVDDLRDAFRTWGR
notes: Endogenous protein in lysates of human tonsillar B cells and Ramos B cells
B1: the binding result in assay [1] is reported as “no binding”.

B2: activation-induced cytidine deaminase (AID), mouse, endogenous in B cells (enzyme, UniProt Q9WVE0 1-198, looked up)
chain: MDSLLMKQKKFLYHFKNVRWAKGRHETYLCYVVKRRDSATSCSLDFGHLRNKSGCHVELLFLRYISDWDLDPGRCYRVTWFTSWSPCYDCARHVAEFLRWNPNLSLRIFTARLYFCEDRKAEPEGLRRLHRAGVQIGIMTFKDYFYCWNTFVENRERTFKAWEGLHENSVRLTRQLRRILLPLYEVDDLRDAFRMLGF
notes: Endogenous protein in mouse splenic B cells and CH12 cells
Consider B2, for which the binding result in assay [2] is recorded as “binds”.
